According to the supplement of paper PMC9112550, “Optimization of the antimicrobial peptide Bac7 by deep mutational scanning” (BMC Biology, 2022):

Tested on: Escherichia coli TOP10
Experiment: shrunken log2 fold change of peptide-encoding DNA abundance (4.5 h post-induction vs induction); higher = less antimicrobial activity (less host growth inhibition)
Conditions: time post-induction: 4.5 h; library: site-saturation at positions 5, 18, 19, 20
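Also: peptides expressed intracellularly from a pBAD plasmid library in pooled LB shake-flask culture, induced with 0.3% L-arabinose, DNA abundance read by NGS, three biological replicates, DESeq2 with apeglm shrinkage.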

Row | Sequence | shrunken log2 fold change
1 | RRIRCRPPRLPRPRPRPKAYPRP | -0.0053
2 | RRIRWRPPRLPRPRPRPVMLPRP | -0.0383
3 | RRIRSRPPRLPRPRPRPSRIPRP | -0.106
4 | RRIRPRPPRLPRPRPRPSEAPRP | -0.0726
5 | RRIRFRPPRLPRPRPRPDLMPRP | -0.114
6 | RRIRARPPRLPRPRPRPKNWPRP | 0.465
7 | RRIRMRPPRLPRPRPRPAFYPRP | -0.0165
8 | RRIRHRPPRLPRPRPRPFDSPRP | -0.00149
9 | RRIRGRPPRLPRPRPRPRWMPRP | 0.297
10 | RRIRDRPPRLPRPRPRPYDRPRP | -0.0075
11 | RRIRGRPPRLPRPRPRPNARPRP | 0.501
12 | RRIRLRPPRLPRPRPRPHFVPRP | -0.0621
13 | RRIRTRPPRLPRPRPRPCHNPRP | -0.0285
14 | RRIRTRPPRLPRPRPRPCWMPRP | -0.259
15 | RRIRDRPPRLPRPRPRPTNEPRP | 0.265
16 | RRIRWRPPRLPRPRPRPQGVPRP | 0.198
17 | RRIRRRPPRLPRPRPRPYEPPRP | -0.846
18 | RRIRYRPPRLPRPRPRPQSPPRP | -0.0354
19 | RRIRSRPPRLPRPRPRPGNLPRP | -0.0533
20 | RRIRSRPPRLPRPRPRPWAHPRP | -0.186
21 | RRIRHRPPRLPRPRPRPCMCPRP | -0.245
22 | RRIRGRPPRLPRPRPRPWFKPRP | -0.824
23 | RRIRDRPPRLPRPRPRPSTFPRP | 0.11
24 | RRIRVRPPRLPRPRPRPGKRPRP | -0.00991
25 | RRIRTRPPRLPRPRPRPFSEPRP | -0.0338

Row | Sequence | shrunken log2 fold change
26 | RRIRFRPPRLPRPRPRPMTNPRP | -0.2
27 | RRIRWRPPRLPRPRPRPKDYPRP | 0.0778
28 | RRIRGRPPRLPRPRPRPDADPRP | 3.64
29 | RRIRARPPRLPRPRPRPLVGPRP | 0.321
30 | RRIRHRPPRLPRPRPRPWSKPRP | -0.301
31 | RRIRARPPRLPRPRPRPHAYPRP | 0.0225
32 | RRIRTRPPRLPRPRPRPCCRPRP | 0.0338
33 | RRIRCRPPRLPRPRPRPENSPRP | -0.0484
34 | RRIRKRPPRLPRPRPRPCRYPRP | -0.00884
35 | RRIRRRPPRLPRPRPRPRKAPRP | 0.885
36 | RRIRFRPPRLPRPRPRPRSMPRP | -0.408
37 | RRIRDRPPRLPRPRPRPNKAPRP | 0.0205
38 | RRIRPRPPRLPRPRPRPGTDPRP | 0.119
39 | RRIRIRPPRLPRPRPRPTVEPRP | -0.0817
40 | RRIRARPPRLPRPRPRPVWKPRP | 0.125
41 | RRIRRRPPRLPRPRPRPAANPRP | 3
42 | RRIRMRPPRLPRPRPRPRFPPRP | 0.573
43 | RRIRGRPPRLPRPRPRPNFHPRP | 0.611
44 | RRIRLRPPRLPRPRPRPPWTPRP | 0.411
45 | RRIRHRPPRLPRPRPRPGLAPRP | 0.366
46 | RRIRDRPPRLPRPRPRPMQNPRP | 0.269
47 | RRIRLRPPRLPRPRPRPRSCPRP | -0.0664
48 | RRIRRRPPRLPRPRPRPAALPRP | 0.55
49 | RRIRQRPPRLPRPRPRPDIFPRP | -0.104
50 | RRIRWRPPRLPRPRPRPDCAPRP | 0.97

Row | Sequence | shrunken log2 fold change
51 | RRIRNRPPRLPRPRPRPSSWPRP | 0.0908
52 | RRIRIRPPRLPRPRPRPHYFPRP | -0.173
53 | RRIRARPPRLPRPRPRPMDRPRP | 0.108
54 | RRIRWRPPRLPRPRPRPGDWPRP | 0.655
55 | RRIRARPPRLPRPRPRPRSWPRP | 0.533
56 | RRIRARPPRLPRPRPRPIWEPRP | 0.473
57 | RRIRERPPRLPRPRPRPDAYPRP | -0.532
58 | RRIRVRPPRLPRPRPRPHFSPRP | -0.0373
59 | RRIRFRPPRLPRPRPRPDAMPRP | 0.138
60 | RRIRRRPPRLPRPRPRPHFWPRP | 0.51
61 | RRIRNRPPRLPRPRPRPKHSPRP | -0.187
62 | RRIRIRPPRLPRPRPRPSQVPRP | -0.186
63 | RRIRFRPPRLPRPRPRPYHCPRP | 0.0331
64 | RRIRKRPPRLPRPRPRPMYHPRP | -0.0356
65 | RRIRARPPRLPRPRPRPKNGPRP | 0.246
66 | RRIRGRPPRLPRPRPRPLIGPRP | 0.561
67 | RRIRQRPPRLPRPRPRPVLNPRP | 2.89
68 | RRIRMRPPRLPRPRPRPYEPPRP | -0.352
69 | RRIRMRPPRLPRPRPRPQWAPRP | -0.0175
70 | RRIRKRPPRLPRPRPRPANPPRP | 0.071
71 | RRIRNRPPRLPRPRPRPLFDPRP | -0.298
72 | RRIRARPPRLPRPRPRPTNKPRP | -0.0139
73 | RRIRHRPPRLPRPRPRPMCFPRP | -0.574
74 | RRIRQRPPRLPRPRPRPCFDPRP | -0.103
75 | RRIRVRPPRLPRPRPRPSKHPRP | -0.538

Row | Sequence | shrunken log2 fold change
76 | RRIRDRPPRLPRPRPRPQMWPRP | -0.23
77 | RRIRRRPPRLPRPRPRPTGSPRP | 0.302
78 | RRIRRRPPRLPRPRPRPWACPRP | 0.0634
79 | RRIRFRPPRLPRPRPRPHWMPRP | -0.457
80 | RRIRCRPPRLPRPRPRPAQRPRP | 0.613
81 | RRIRWRPPRLPRPRPRPGRGPRP | 0.643
82 | RRIRNRPPRLPRPRPRPYPAPRP | 0.0741
83 | RRIRDRPPRLPRPRPRPHAKPRP | 0.0435
84 | RRIRTRPPRLPRPRPRPGKWPRP | -0.192
85 | RRIRDRPPRLPRPRPRPCIQPRP | -0.0125
86 | RRIRVRPPRLPRPRPRPEKIPRP | -0.191
87 | RRIRCRPPRLPRPRPRPVEFPRP | -0.05
88 | RRIRFRPPRLPRPRPRPTYGPRP | -0.252
89 | RRIRWRPPRLPRPRPRPAIQPRP | 0.0853
90 | RRIRFRPPRLPRPRPRPHVWPRP | 0.491
91 | RRIRGRPPRLPRPRPRPNTCPRP | 0.103
92 | RRIRLRPPRLPRPRPRPAYSPRP | -0.354
93 | RRIRFRPPRLPRPRPRPFFPPRP | 0.386
94 | RRIRSRPPRLPRPRPRPVIEPRP | -0.186
95 | RRIRPRPPRLPRPRPRPGWTPRP | 0.235
96 | RRIRLRPPRLPRPRPRPMTLPRP | -0.156
97 | RRIRMRPPRLPRPRPRPLVTPRP | -0.107
98 | RRIRSRPPRLPRPRPRPCPTPRP | -0.138
99 | RRIRLRPPRLPRPRPRPTPIPRP | 0.3
100 | RRIRTRPPRLPRPRPRPFNCPRP | -0.038

Row | Sequence | shrunken log2 fold change
101 | RRIRYRPPRLPRPRPRPEISPRP | -0.00407
102 | RRIRNRPPRLPRPRPRPVAKPRP | -0.107
103 | RRIRKRPPRLPRPRPRPARQPRP | 0.356
104 | RRIRRRPPRLPRPRPRPYYDPRP | -1.02
105 | RRIRSRPPRLPRPRPRPEVQPRP | -0.0242
106 | RRIRWRPPRLPRPRPRPRTDPRP | 0.342
107 | RRIRHRPPRLPRPRPRPKLEPRP | -0.0604
108 | RRIRSRPPRLPRPRPRPQRAPRP | 0.123
109 | RRIRVRPPRLPRPRPRPENNPRP | 0.00554
110 | RRIRKRPPRLPRPRPRPAADPRP | 0.941
111 | RRIRCRPPRLPRPRPRPSSTPRP | -0.855
112 | RRIRSRPPRLPRPRPRPSFFPRP | -0.211
113 | RRIRVRPPRLPRPRPRPDYAPRP | -0.0204
114 | RRIRARPPRLPRPRPRPSDSPRP | -0.197
115 | RRIRKRPPRLPRPRPRPHRMPRP | -0.0995
116 | RRIRNRPPRLPRPRPRPCQKPRP | 0.00489
117 | RRIRTRPPRLPRPRPRPMQKPRP | -0.00906
118 | RRIRQRPPRLPRPRPRPNTTPRP | 0.15
119 | RRIRPRPPRLPRPRPRPLVDPRP | 0.111
120 | RRIRIRPPRLPRPRPRPATYPRP | 0.00351
121 | RRIRQRPPRLPRPRPRPMGSPRP | -0.0869
122 | RRIRFRPPRLPRPRPRPVMLPRP | -0.412
123 | RRIRMRPPRLPRPRPRPRPDPRP | 0.937
124 | RRIRVRPPRLPRPRPRPVQPPRP | 0.114
125 | RRIRWRPPRLPRPRPRPCINPRP | -0.374
